This assay relates to H1N1 influenza (A/PR8 strain). It is filed as in vivo, C57BL/6 mice.

B1: F-652: recombinant IL-22 dimer consisting of two monomeric subunits each comprising a sequence shown in SEQ ID NO: 24 (protein)
chain 1: APISSHCRLDKSNFQQPYITNRTFMLAKEASLADNNTDVRLIGEKLFHGVSMSERCYLMKQVLNFTLEEVLFPQSDRFQPYMQEVVPFLARLSNRLSTCHIEGDDLHIQRNVQKLKDTVKKLGESGEIKAIGELDLLFMSLRNACIGSGGGSGGGGSGGGGSVECPPCPAPPVAGPSVFLFPPKPKDTLMISRTPEVTCVVVDVSHEDPEVQFNWYVDGVEVHNAKTKPREEQFNSTFRVVSVLTVVHQDWLNGKEYKCKVSNKGLPASIEKTISKTKGQPREPQVYTLPPSREEMTKNQVSLTCLVKGFYPSDIAVEWESNGQPENNYKTTPPMLDSDGSFFLYSKLTVDKSRWQQGNVFSCSVMHEALHNHYTQKSLSLSPGK
chain 2: B1 chain 1
modifications: homodimer
Turning to B1, where the note is “6-week treatment groups”, the “decreased small airway resistance at baseline (pattern differences)” value is reported as “not seen”. The “input impedance (Re Zrs): baseline resistance in small airways” value (aged mice, not young mice, prior to airway recruitment maneuver) was “significantly improves baseline resistance”.

These data come from patent publication US20230079150A1, “METHODS FOR PREVENTION OR TREATMENT OF VIRUS-INDUCED ORGAN INJURY OR FAILURE WITH IL-22 DIMER” (priority 2020, published 2023).
